Patent US20110305750

Tested on: GST-MT1-MMP cytoplasmic tail fusion protein

recombinant Src kinase
tyrosine phosphorylation of GST-MT in an in vitro phosphorylation assay (western blot): Src-mediated tyrosine phosphorylation of GST-MT
